US20240270846A1 (published 2024)
Changes are numbered by the printed parent chain. Names and notes keep the numbering of the source.

B1: CE115HA000 D101G one-arm antibody (antibody, human IgG1, kappa, L234A L235A, N297A, name in Kabat numbering)
heavy: QVQLVESGGGVVQPGRSLRLSCAASGFTFSNAWMHWVRQAPGKGLEWVAQIKAKSNNYATYYAESVKGRFTISRDDSKNSLYLQMNSLKTEDTAVYYCRYVHYGAYYGVGAWGQGTTVTVSSASTKGPSVFPLAPSSKSTSGGTAALGCLVKDYFPEPVTVSWNSGALTSGVHTFPAVLQSSGLYSLSSVVTVPSSSLGTQTYICNVNHKPSNTKVDKKVEPKSCDKTHTCPPCPAPEAAGGPSVFLFPPKPKDTLMISRTPEVTCVVVDVSHEDPEVKFNWYVDGVEVHNAKTKPREEQYASTYRVVSVLTVLHQDWLNGKEYKCKVSNKALPAPIEKTISKAKGQPREPQVYTLPPSRCELTKNQVSLSCAVKGFYPSDIAVEWESNGQPENNYKTTPPVLDSDGSFFLVSKLTVDKSRWQQGNVFSCSVMHEALHNHYTQKSLSLSPDYKDDDDK
chain: EPKSSDKTHTCPPCPAPELLGGPSVFLFPPKPKDTLMISRTPEVTCVVVDVSHEDPEVKFNWYVDGVEVHNAKTKPREEQYNSTYRVVSVLTVLHQDWLNGKEYKCKVSNKALPAPIEKTISKAKGQPREPQVCTLPPSRDELTKNQVSLWCLVKGFYPSDIAVEWESNGQPENNYKTTPPVLDSDGSFFLYSKLTVDKSRWQQGNVFSCSVMHEALHNRYTQKSLSLSP
light: DIVMTQSPLSLPVTPGEPASISCRSSQSLVHSNRNTYLHWYQQKPGQAPRLLIYKVSNRFSGVPDRFSGSGSGTDFTLKISRVEAEDVGVYYCGQGTQVPYTFGQGTKLEIKRTVAAPSVFIFPPSDEQLKSGTASVVCLLNNFYPREAKVQWKVDNALQSGNSQESVTEQDSKDSTYSLSSTLTLSKADYEKHKVYACEVTHQGLSSPVTKSFNRGEC
notes: one-arm antibody (one Fab)
B2: CE115HA000 D101H one-arm antibody (antibody, human IgG1, kappa, L234A L235A, N297A, name in Kabat numbering)
heavy: B1 heavy with G110H
chain: B1 chain
light: B1 light
notes: one-arm antibody (one Fab)
B3: CE115HA000 D101I one-arm antibody (antibody, human IgG1, kappa, L234A L235A, N297A, name in Kabat numbering)
heavy: B1 heavy with G110I
chain: B1 chain
light: B1 light
notes: one-arm antibody (one Fab)
B4: CE115HA000 D101K one-arm antibody (antibody, human IgG1, kappa, L234A L235A, N297A, name in Kabat numbering)
heavy: B1 heavy with G110K
chain: B1 chain
light: B1 light
notes: one-arm antibody (one Fab)
B5: CE115HA000 D101L one-arm antibody (antibody, human IgG1, kappa, L234A L235A, N297A, name in Kabat numbering)
heavy: B1 heavy with G110L
chain: B1 chain
light: B1 light
notes: one-arm antibody (one Fab)
B6: CE115HA000 D101M one-arm antibody (antibody, human IgG1, kappa, L234A L235A, N297A, name in Kabat numbering)
heavy: B1 heavy with G110M
chain: B1 chain
light: B1 light
notes: one-arm antibody (one Fab)
B7: CE115HA000 D101N one-arm antibody (antibody, human IgG1, kappa, L234A L235A, N297A, name in Kabat numbering)
heavy: B1 heavy with G110N
chain: B1 chain
light: B1 light
notes: one-arm antibody (one Fab)
B8: CE115HA000 D101P one-arm antibody (antibody, human IgG1, kappa, L234A L235A, N297A, name in Kabat numbering)
heavy: B1 heavy with G110P
chain: B1 chain
light: B1 light
notes: one-arm antibody (one Fab)
B9: CE115HA000 D101Q one-arm antibody (antibody, human IgG1, kappa, L234A L235A, N297A, name in Kabat numbering)
heavy: B1 heavy with G110Q
chain: B1 chain
light: B1 light
notes: one-arm antibody (one Fab)
B10: CE115HA000 D101R one-arm antibody (antibody, human IgG1, kappa, L234A L235A, N297A, name in Kabat numbering)
heavy: B1 heavy with G110R
chain: B1 chain
light: B1 light
notes: one-arm antibody (one Fab)
B11: CE115HA000 D101S one-arm antibody (antibody, human IgG1, kappa, L234A L235A, N297A, name in Kabat numbering)
heavy: B1 heavy with G110S
chain: B1 chain
light: B1 light
notes: one-arm antibody (one Fab)
B12: CE115HA000 D101T one-arm antibody (antibody, human IgG1, kappa, L234A L235A, N297A, name in Kabat numbering)
heavy: B1 heavy with G110T
chain: B1 chain
light: B1 light
notes: one-arm antibody (one Fab)
B13: CE115HA000 D101V one-arm antibody (antibody, human IgG1, kappa, L234A L235A, N297A, name in Kabat numbering)
heavy: B1 heavy with G110V
chain: B1 chain
light: B1 light
notes: one-arm antibody (one Fab)
B14: CE115HA000 D101Y one-arm antibody (antibody, human IgG1, kappa, L234A L235A, N297A, name in Kabat numbering)
heavy: B1 heavy with G110Y
chain: B1 chain
light: B1 light
notes: one-arm antibody (one Fab)
B15: CE115HA000 E61P one-arm antibody (antibody, human IgG1, kappa, L234A L235A, N297A, name in Kabat numbering)
heavy: B1 heavy with E64P, G110D
chain: B1 chain
light: B1 light
notes: one-arm antibody (one Fab)
B16: CE115HA000 E61Q one-arm antibody (antibody, human IgG1, kappa, L234A L235A, N297A, name in Kabat numbering)
heavy: B1 heavy with E64Q, G110D
chain: B1 chain
light: B1 light
notes: one-arm antibody (one Fab)
B17: CE115HA000 G98A one-arm antibody (antibody, human IgG1, kappa, L234A L235A, N297A, name in Kabat numbering)
heavy: B1 heavy with G104A, G110D
chain: B1 chain
light: B1 light
notes: one-arm antibody (one Fab)
B18: CE115HA000 G98D one-arm antibody (antibody, human IgG1, kappa, L234A L235A, N297A, name in Kabat numbering)
heavy: B1 heavy with G104D, G110D
chain: B1 chain
light: B1 light
notes: one-arm antibody (one Fab)
B19: CE115HA000 G98H one-arm antibody (antibody, human IgG1, kappa, L234A L235A, N297A, name in Kabat numbering)
heavy: B1 heavy with G104H, G110D
chain: B1 chain
light: B1 light
notes: one-arm antibody (one Fab)
B20: CE115HA000 G98K one-arm antibody (antibody, human IgG1, kappa, L234A L235A, N297A, name in Kabat numbering)
heavy: B1 heavy with G104K, G110D
chain: B1 chain
light: B1 light
notes: one-arm antibody (one Fab)
B21: CE115HA000 G98P one-arm antibody (antibody, human IgG1, kappa, L234A L235A, N297A, name in Kabat numbering)
heavy: B1 heavy with G104P, G110D
chain: B1 chain
light: B1 light
notes: one-arm antibody (one Fab)
B22: CE115HA000 G98Q one-arm antibody (antibody, human IgG1, kappa, L234A L235A, N297A, name in Kabat numbering)
heavy: B1 heavy with G104Q, G110D
chain: B1 chain
light: B1 light
notes: one-arm antibody (one Fab)
B23: CE115HA000 G98R one-arm antibody (antibody, human IgG1, kappa, L234A L235A, N297A, name in Kabat numbering)
heavy: B1 heavy with G104R, G110D
chain: B1 chain
light: B1 light
notes: one-arm antibody (one Fab)

These binders were tested against T1, CD3 epsilon homodimer protein (UniProt P07766 23-126) (assay: SPR Biacore T200, CD3 epsilon homodimer on CM4 chip, antibody as analyte;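 also: Amine-coupled CD3 epsilon homodimer, run at 25 °C in HBS-EP+ buffer, ratio is bound amount of each single-residue H chain variant over that of the parent antibody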).
T1 construct: Immobilized on Sensor chip CM4 by amine coupling; construct not described; also called CD3 (CD3 epsilon)
T1 sequence (P07766 23-126): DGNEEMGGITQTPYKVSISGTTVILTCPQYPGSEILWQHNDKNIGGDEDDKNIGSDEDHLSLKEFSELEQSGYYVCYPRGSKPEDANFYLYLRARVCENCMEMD

Binder | ratio of amounts bound (Y/X vs CE115HA000)
B1 | 1.38
B2 | 1.21
B3 | 1.18
B4 | 0.63
B5 | 0.62
B6 | 1.2
B7 | 2.02
B8 | 0.2
B9 | 2.35
B10 | 0.24
B11 | 1.16
B12 | 0.79
B13 | 1.33
B14 | 0.49
B15 | 1.07
B16 | 1.07
B17 | 1.1
B18 | 0.26
B19 | 1.58
B20 | 2.83
B21 | 1.02
B22 | 1.22
B23 | 2.96
